One test addresses T1, LZTR1 R810W-FLAG (human, UniProt Q8N653 1-840).
T1 construct: Stably expressed in U87 cells by lentivirus; also called LZTR1-FLAG-R810W; LZTR1 RW; not shown: FLAG tag
T1 sequence (looked up): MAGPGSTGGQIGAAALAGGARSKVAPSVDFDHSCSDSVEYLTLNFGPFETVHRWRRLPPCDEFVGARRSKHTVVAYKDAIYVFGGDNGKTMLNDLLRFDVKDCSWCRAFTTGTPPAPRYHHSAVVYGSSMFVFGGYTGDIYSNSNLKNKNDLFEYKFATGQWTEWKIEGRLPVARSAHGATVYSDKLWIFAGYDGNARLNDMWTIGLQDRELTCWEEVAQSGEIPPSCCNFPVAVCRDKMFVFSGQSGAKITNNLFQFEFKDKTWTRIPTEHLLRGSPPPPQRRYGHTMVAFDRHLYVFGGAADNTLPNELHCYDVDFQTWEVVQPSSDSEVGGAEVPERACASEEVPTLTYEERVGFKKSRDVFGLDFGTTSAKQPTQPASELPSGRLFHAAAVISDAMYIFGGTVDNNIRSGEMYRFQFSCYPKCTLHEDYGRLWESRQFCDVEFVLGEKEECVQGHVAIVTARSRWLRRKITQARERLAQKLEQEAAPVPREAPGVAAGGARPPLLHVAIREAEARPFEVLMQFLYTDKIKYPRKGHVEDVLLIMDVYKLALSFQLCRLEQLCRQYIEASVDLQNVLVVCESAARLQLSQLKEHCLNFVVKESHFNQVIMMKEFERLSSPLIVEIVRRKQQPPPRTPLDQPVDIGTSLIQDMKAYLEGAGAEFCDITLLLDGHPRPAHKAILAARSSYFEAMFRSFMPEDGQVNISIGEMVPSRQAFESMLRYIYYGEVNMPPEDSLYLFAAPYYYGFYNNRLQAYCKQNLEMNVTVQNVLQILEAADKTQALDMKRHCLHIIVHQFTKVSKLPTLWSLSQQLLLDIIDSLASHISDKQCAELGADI
Kind of test: IP/MS, LZTR1 R810W-FLAG, U87. How it is done:
(§1) Lysates were immunoprecipitated with FLAG affinity matrix and eluted with FLAG peptide. […] Protein gel slices were excised and in-gel digestion performed as previously described (83), with minor modifications. Gel slices were washed with 1:1 A cetonitrile and 100 mM ammonium bicarbonate for 30 min then dehydrated with 100% acetonitrile for 10 min until shrunk. The excess acetonitrile was then removed and the slices dried in speed-vacuum at room temperature for 10 min. Gel slices were reduced with 5 mM DTT for 30 min at 56° C. in an air thermostat, cooled down to room temperature, and alkylated with 11 mM IAA for 30 min with no light. Gel slices were then washed with 100 mM of ammonium bicarbonate and 100% acetonitrile for 10 min each. Excess acetonitrile was removed and dried in a speed-vacuum for 10 min at room temperature and the gel slices were re-hydrated in a solution of 25 ng/μl trypsin in 50 mM ammonium bicarbonate for 30 min on ice and digested overnight at 37° C. in an air thermostat. Digested peptides were collected and further extracted from gel slices in extraction buffer (1:2 ratio by volume of 5% formic acid:acetonitrile) at high speed, shaking in an air thermostat. The supernatants from both extractions were combined and dried in a speed-vacuum. Peptides were dissolved in 3% acetonitrile/0.1% formic acid. Desalted peptides were injected in an EASY-Spray™ PepMap™ RSLC C18 50 cm×[…] column (Thermo Scientific) connected to an Orbitrap Fusion™ Tribrid™ (Thermo Scientific) as described in “Global ubiquitylation enrichment” section. The following modifications were used for protein identification and quantification: oxidation of methionine (M), acetylation of the protein N-terminus, and deamination for asparagine or glutamine (NQ). Results obtained from MaxQuant were assembled in Scaffold for data visualization.

Another test deals with T2, LZTR1-FLAG (human, UniProt Q8N653 1-840).
T2 construct: Expressed in HEK 293T, HeLa or U87 cells; used as cell lysate; also called LZTR1 wild type-FLAG; LZTR1 WT; not shown: FLAG tag at the C-terminus
T2 sequence (looked up): T1 sequence (looked up) with W810R
Kind of test: IP/MS, LZTR1 wild type-FLAG, U87. As for the experimental part:
as §1

Residue numbers refer to the chain shown, from its start.

B1: BRAT1 (other, human, UniProt Q6PJG6 1-821, looked up)
chain: MDPECAQLLPALCAVLVDPRQPVADDTCLEKLLDWFKTVTEGESSVVLLQEHPCLVELLSHVLKVQDLSSGVLSFSLRLAGTFAAQENCFQYLQQGELLPGLFGEPGPLGRATWAVPTVRSGWIQGLRSLAQHPSALRFLADHGAVDTIFSLQGDSSLFVASAASQLLVHVLALSMRGGAEGQPCLPGGDWPACAQKIMDHVEESLCSAATPKVTQALNVLTTTFGRCQSPWTEALWVRLSPRVACLLERDPIPAAHSFVDLLLCVARSPVFSSSDGSLWETVARALSCLGPTHMGPLALGILKLEHCPQALRTQAFQVLLQPLACVLKATVQAPGPPGLLDGTADDATTVDTLLASKSSCAGLLCRTLAHLEELQPLPQRPSPWPQASLLGATVTVLRLCDGSAAPASSVGGHLCGTLAGCVRVQRAALDFLGTLSQGTGPQELVTQALAVLLECLESPGSSPTVLKKAFQATLRWLLSSPKTPGCSDLGPLIPQFLRELFPVLQKRLCHPCWEVRDSALEFLTQLSRHWGGQADFRCALLASEVPQLALQLLQDPESYVRASAVTAMGQLSSQGLHAPTSPEHAEARQSLFLELLHILSVDSEGFPRRAVMQVFTEWLRDGHADAAQDTEQFVATVLQAASRDLDWEVRAQGLELALVFLGQTLGPPRTHCPYAVALPEVAPAQPLTEALRALCHVGLFDFAFCALFDCDRPVAQKSCDLLLFLRDKIASYSSLREARGSPNTASAEATLPRWRAGEQAQPPGDQEPEAVLAMLRSLDLEGLRSTLAESSDHVEKSPQSLLQDMLATGGFLQGDEADCY
As for B1, the binding result with LZTR1 R810W-FLAG and in the test with LZTR1-FLAG was “binds” in each case.

B2: CREB3L2 (other, human, UniProt Q70SY1 1-520, looked up)
chain: MEVLESGEQGVLQWDRKLSELSEPGDGEALMYHTHFSELLDEFSQNVLGQLLNDPFLSEKSVSMEVEPSPTSPAPLIQAEHSYSLCEEPRAQSPFTHITTSDSFNDDEVESEKWYLSTDFPSTSIKTEPVTDEPPPGLVPSVTLTITAISTPLEKEEPPLEMNTGVDSSCQTIIPKIKLEPHEVDQFLNFSPKEAPVDHLHLPPTPPSSHGSDSEGSLSPNPRLHPFSLPQTHSPSRAAPRAPSALSSSPLLTAPHKLQGSGPLVLTEEEKRTLIAEGYPIPTKLPLSKSEEKALKKIRRKIKNKISAQESRRKKKEYMDSLEKKVESCSTENLELRKKVEVLENTNRTLLQQLQKLQTLVMGKVSRTCKLAGTQTGTCLMVVVLCFAVAFGSFFQGYGPYPSATKMALPSQHSLQEPYTASVVRSRNLLIYEEHSPPEESSSPGSAGELGGWDRGSSLLRVSGLESRPDVDLPHFIISNETSLEKSVLLELQQHLVSAKLEGNETLKVVELDRRVNTTF
With B2, the binding result with LZTR1 R810W-FLAG and with LZTR1-FLAG was “binds” in each case.

B3: CCNB2 (other, human, UniProt O95067 1-398, looked up)
chain: MALLRRPTVSSDLENIDTGVNSKVKSHVTIRRTVLEEIGNRVTTRAAQVAKKAQNTKVPVQPTKTTNVNKQLKPTASVKPVQMEKLAPKGPSPTPEDVSMKEENLCQAFSDALLCKIEDIDNEDWENPQLCSDYVKDIYQYLRQLEVLQSINPHFLDGRDINGRMRAILVDWLVQVHSKFRLLQETLYMCVGIMDRFLQVQPVSRKKLQLVGITALLLASKYEEMFSPNIEDFVYITDNAYTSSQIREMETLILKELKFELGRPLPLHFLRRASKAGEVDVEQHTLAKYLMELTLIDYDMVHYHPSKVAAAASCLSQKVLGQGKWNLKQQYYTGYTENEVLEVMQHMAKNVVKVNENLTKFIAIKNKYASSKLLKISMIPQLNSKAVKDLASPLIGRS
Take B3: the binding result in the test with LZTR1 R810W-FLAG and in the test with LZTR1-FLAG was “binds” in each case.

B4: CTH (other, human, UniProt P32929 1-405, looked up)
chain: MQEKDASSQGFLPHFQHFATQAIHVGQDPEQWTSRAVVPPISLSTTFKQGAPGQHSGFEYSRSGNPTRNCLEKAVAALDGAKYCLAFASGLAATVTITHLLKAGDQIICMDDVYGGTNRYFRQVASEFGLKISFVDCSKIKLLEAAITPETKLVWIETPTNPTQKVIDIEGCAHIVHKHGDIILVVDNTFMSPYFQRPLALGADISMYSATKYMNGHSDVVMGLVSVNCESLHNRLRFLQNSLGAVPSPIDCYLCNRGLKTLHVRMEKHFKNGMAVAQFLESNPWVEKVIYPGLPSHPQHELVKRQCTGCTGMVTFYIKGTLQHAEIFLKNLKLFTLAESLGGFESLAELPAIMTHASVLKNDRDVLGISDTLIRLSVGLEDEEDLLEDLDQALKAAHPPSGSHS
For the molecule B4, the binding result with LZTR1 R810W-FLAG and in the test with LZTR1-FLAG was “binds” in each case.

B5: CARS (other, human, UniProt P49589 2-748, looked up)
chain: ADSSGQQGKGRRVQPQWSPPAGTQPCRLHLYNSLTRNKEVFIPQDGKKVTWYCCGPTVYDASHMGHARSYISFDILRRVLKDYFKFDVFYCMNITDIDDKIIKRARQNHLFEQYREKRPEAAQLLEDVQAALKPFSVKLNETTDPDKKQMLERIQHAVQLATEPLEKAVQSRLTGEEVNSCVEVLLEEAKDLLSDWLDSTLGCDVTDNSIFSKLPKFWEGDFHRDMEALNVLPPDVLTRVSEYVPEIVNFVQKIVDNGYGYVSNGSVYFDTAKFASSEKHSYGKLVPEAVGDQKALQEGEGDLSISADRLSEKRSPNDFALWKASKPGEPSWPCPWGKGRPGWHIECSAMAGTLLGASMDIHGGGFDLRFPHHDNELAQSEAYFENDCWVRYFLHTGHLTIAGCKMSKSLKNFITIKDALKKHSARQLRLAFLMHSWKDTLDYSSNTMESALQYEKFLNEFFLNVKDILRAPVDITGQFEKWGEEEAELNKNFYDKKTAIHKALCDNVDTRTVMEEMRALVSQCNLYMAARKAVRKRPNQALLENIALYLTHMLKIFGAVEEDSSLGFPVGGPGTSLSLEATVMPYLQVLSEFREGVRKIAREQKVPEILQLSDALRDNILPELGVRFEDHEGLPTVVKLVDRNTLLKEREEKRRVEEEKRKKKEEAARRKQEQEAAKLAKMKIPPSEMFLSETDKYSKFDENGLPTHDMEGKELSKGQAKKLKKLFEAQEKLYKEYLQMAQNGSFQ
Turning to B5, the binding result with LZTR1 R810W-FLAG and in the test with LZTR1-FLAG was “binds” each time.

B6: CELF1 (other, human, UniProt Q92879 1-486, looked up)
chain: MNGTLDHPDQPDLDAIKMFVGQVPRTWSEKDLRELFEQYGAVYEINVLRDRSQNPPQSKGCCFVTFYTRKAALEAQNALHNMKVLPGMHHPIQMKPADSEKNNAVEDRKLFIGMISKKCTENDIRVMFSSFGQIEECRILRGPDGLSRGCAFVTFTTRAMAQTAIKAMHQAQTMEGCSSPMVVKFADTQKDKEQKRMAQQLQQQMQQISAASVWGNLAGLNTLGPQYLALYLQLLQQTASSGNLNTLSSLHPMGGLNAMQLQNLAALAAAASAAQNTPSGTNALTTSSSPLSVLTSSGSSPSSSSSNSVNPIASLGALQTLAGATAGLNVGSLAGMAALNGGLGSSGLSNGTGSTMEALTQAYSGIQQYAAAALPTLYNQNLLTQQSIGAAGSQKEGPEGANLFIYHLPQEFGDQDLLQMFMPFGNVVSAKVFIDKQTNLSKCFGFVSYDNPVSAQAAIQSMNGFQIGMKRLKVQLKRSKNDSKPY
B6: the binding result with LZTR1 R810W-FLAG and with LZTR1-FLAG was “binds” each time.

(Values after patent US20250262210A1 (TRUSTEES OF COLUMBIA UNIVERSITY IN THE CITY OF NEW YORK, published 2025).)
